Here are results for 1 substance from article PMC5055751 (Nature chemical biology, 2016).

The test system of the data set is mouse embryonic fibroblasts (MEFs). As to the kind of experiment: Cellular uptake of FITC-peptides by ImageXpress high-content microscopy. The note with it: MEFs 2×10^4 cells, 0% FBS, dose varied; text 2 hours, legend 4 hr.

Turning to “BIM BH3_1: unmodified template peptide FITC-BIM BH3_1 (aa 146–166)”, the “TIFI versus FITC-peptide dose, result in words” value is given as “linear, dose-responsive increase in TIFI”.
